Laboratory results as given in paper PMC4862333 (The Journal of Cell Biology, 2016).

B1: His-Sumo-tagged Cab45 (recombinant) (natural protein, human, UniProt Q9BRK5 37-362, looked up)
chain: RPANHSSTRERVANREENEILPPDHLNGVKLEMDGHLNRGFHQEVFLGKDLGGFDEDAEPRRSRRKLMVIFSKVDVNTDRKISAKEMQRWIMEKTAEHFQEAMEESKTHFRAVDPDGDGHVSWDEYKVKFLASKGHSEKEVADAIRLNEELKVDEETQEVLENLKDRWYQADSPPADLLLTEEEFLSFLHPEHSRGMLRFMVKEIVRDLDQDGDKQLSVPEFISLPVGTVENQQGQDIDDNWVKDRKKEFEELIDSNHDGIVTAEELESYMDPMNEYNALNEAKQMIAVADENQNHHLEPEEVLKYSEFFTGSKLVDYARSVHEEF
B2: ATTO488-labeled recombinant Cab45 (natural protein, human, UniProt Q9BRK5 37-362, looked up)
chain: B1 chain
modifications: ATTO488 (NHS-ATTO488 label)

Legend:
native gel or EMSA = biological target: the molecule itself; assay: native gel or EMSA
[1] = biological target: the molecule itself; assay: in vitro oligomerization assay

Protein	binding result (native gel or EMSA)	binding result [1]
B1	binds	
B2		binds
